Source: patent US20190117772, “METHODS FOR THE TREATMENT OF CARDIAC HYPERTROPHY” (UNIVERSITY OF CINCINNATI, published 2019)

Biological target: HuR (Human antigen R, ELAVL1) (UniProt Q15717 Q15717:1-326)
Experiment: SPR; localized SPR (LSPR) on gold nanoparticle arrays; sizable red shift on HuR addition; inhibitor CMLD-1 disrupted binding (10 nm leftward shift)
Settings: tags: Novus Biologicals H00001994-P01; tethered by base pairing to thiolated ssDNA on gold nanoparticles
Protocol: Next a target RNA strand containing a DNA hybridizing region, which binds via base pair matching with the ssDNA on the nanoparticle, and a hairpin loop containing a HuR target binding site. The specific target RNA strand used (SEQ ID NO 7) contains a specific HuR binding motif, has the RNA sequence 5′-GCG-AAU-UGG-GCC-CGA-CGU-CGC-AUG-GCU-UUU-AUU-UAU-UUU-GCA-UGG-CCG-CGG-GAU-3′, and was from Integrated DNA Technologies (IDT). Last, the HuR protein is added and binds to its target site withing the RNA hairpin loop. The specific HuR protein used was a recombinant HuR protein from Novus Biologicals (product #:H00001994-P01). For each step of the assembly, sizable LSPR shifts were observed, confirming our ability to quantitatively measure the expected binding at each step (FIG. 11A-C).

Chain of HuR (Human antigen R, ELAVL1) (Q15717 whole entry, one chain of several): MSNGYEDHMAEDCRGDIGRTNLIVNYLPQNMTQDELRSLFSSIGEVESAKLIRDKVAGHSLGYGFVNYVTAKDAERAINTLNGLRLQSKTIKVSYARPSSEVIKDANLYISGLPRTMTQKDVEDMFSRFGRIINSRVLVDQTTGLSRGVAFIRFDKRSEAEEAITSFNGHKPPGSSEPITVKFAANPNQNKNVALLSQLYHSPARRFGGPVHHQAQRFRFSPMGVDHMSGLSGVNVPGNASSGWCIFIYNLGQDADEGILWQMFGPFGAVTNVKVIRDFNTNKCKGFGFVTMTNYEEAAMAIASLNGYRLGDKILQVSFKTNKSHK

B1: HuR target RNA with DNA-hybridizing region and hairpin loop (ssRNA)
RNA: GCGAAUUGGGCCCGACGUCGCAUGGCUUUUAUUUAUUUUGCAUGGCCGCGGGAU
B1: binds.
